For data set [1], the target named is c-Myc bHLH-Zip (amino acids 342-439) (human, UniProt P01106). Nature of the data set: gel retardation with an oligonucleotide holding the CACGTG site. How it is done:
(§1) Gel retardation DNA binding assays were performed essentially as described in Papoulas et al., (J. Biol. Chem. 267:10470–10480, 1992). Purified Max and c-Myc bHLH-Zip (which contained residues 342–439 of human c-Myc) were made from recombinant *E. coli* by standard techniques. GST-Mxi1 was made as follows: a fragment that contained the entire coding sequence of Mxi1 was amplified using polymerase chain reaction, subcloned into pGEX-2T (Pharmacia), and transformed into DH5α cells. The fusion protein was induced and isolated as described (Smith and Corcoran, *Current Protocols in Molecular Biology*, Ausubel et al., eds., Greene Publishing and Wiley-Interscience, New York, 1989). A double-stranded oligonucleotide, 5'-[…]-3' (SEQ ID NO: 9), that contained the CACGTG (SEQ ID NO: 10) consensus site was used. Approximately 0.5 μg of oligonucleotide was end labeled with [γ-^32P] ATP. Binding assays contained the indicated concentrations of purified Max, c-Myc bHLH-Zip, GST-Mxi1, and 0.5 ng of the labeled DNA probe. […]

For data set [2], the target named is LexA-Da (Escherichia coli (strain K12); Drosophila melanogaster (Fruit fly)) (UniProt P0A7C2). Nature of the data set: interaction trap (yeast two-hybrid), pJK103 LexAop-lacZ reporter, galactose.
Another data set deals with LexA-Hairy (Drosophila). The data set is described as above.
The next data set concerns the target LexA-Id (human). The data set is described as above.
A further data set has as its target LexA-Max (human). The experiment in a line: interaction trap (yeast two-hybrid), pJK103 LexAop-lacZ reporter, galactose (<2 on glucose).
Another data set concerns the target LexA-cMyc-Cterm (human). The description is as above.
The target in data set [3] is LexA-n-Myc-bHLH-Zip (Escherichia coli (strain K12); Homo sapiens (Human)). The experiment in a line: interaction trap (yeast two-hybrid), pJK103 LexAop-lacZ reporter, galactose (<2 on glucose); the text says that this bait does not interact.
For another data set, the target named is LexA-Mxi1 (human). Nature of the data set: interaction trap (yeast two-hybrid), pJK103 LexAop-lacZ reporter, galactose; the same value 10 stands on glucose, where tagged Mxi1 is not induced, and the filing reads this as no self-interaction.
The target in the next data set is Max (151 residue form) (Homo sapiens, UniProt P61244-2 P61244-2:1-151). The experiment in a line: EMSA; complex b, 10 ng Max; 10 mM Tris pH 7.4, 80 mM NaCl, room temperature. Particulars: tags: none stated; E. coli; chain copies: 2 (inferred); label: 32P 5' end. As to the method:
as §1
In general terms: Mobility shift assays separate free from complexed probe on a gel.

LexA-Da (Escherichia coli (strain K12); Drosophila melanogaster (Fruit fly)), sequence (P0A7C2 1-202, tags or fused parts left off): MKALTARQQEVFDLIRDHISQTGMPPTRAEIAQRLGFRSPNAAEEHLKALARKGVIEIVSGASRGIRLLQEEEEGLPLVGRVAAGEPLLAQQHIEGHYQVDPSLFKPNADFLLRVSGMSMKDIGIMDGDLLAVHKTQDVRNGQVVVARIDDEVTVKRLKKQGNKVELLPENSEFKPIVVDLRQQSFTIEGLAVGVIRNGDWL
LexA-n-Myc-bHLH-Zip (Escherichia coli (strain K12); Homo sapiens (Human)), sequence (P0A7C2 1-202, tags or fused parts left off): as above
LexA-Id (human), sequence (P0A7C2 other isoform, or with tags, fused parts or gaps): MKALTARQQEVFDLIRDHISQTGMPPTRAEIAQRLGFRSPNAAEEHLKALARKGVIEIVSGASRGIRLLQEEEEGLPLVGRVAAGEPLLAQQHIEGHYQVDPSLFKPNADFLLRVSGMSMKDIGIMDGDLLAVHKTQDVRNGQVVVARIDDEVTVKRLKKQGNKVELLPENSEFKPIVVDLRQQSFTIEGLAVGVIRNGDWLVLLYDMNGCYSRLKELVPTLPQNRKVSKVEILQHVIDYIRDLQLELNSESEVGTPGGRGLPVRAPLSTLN
LexA-Hairy (Drosophila), sequence (P0A7C2 other isoform, or with tags, fused parts or gaps): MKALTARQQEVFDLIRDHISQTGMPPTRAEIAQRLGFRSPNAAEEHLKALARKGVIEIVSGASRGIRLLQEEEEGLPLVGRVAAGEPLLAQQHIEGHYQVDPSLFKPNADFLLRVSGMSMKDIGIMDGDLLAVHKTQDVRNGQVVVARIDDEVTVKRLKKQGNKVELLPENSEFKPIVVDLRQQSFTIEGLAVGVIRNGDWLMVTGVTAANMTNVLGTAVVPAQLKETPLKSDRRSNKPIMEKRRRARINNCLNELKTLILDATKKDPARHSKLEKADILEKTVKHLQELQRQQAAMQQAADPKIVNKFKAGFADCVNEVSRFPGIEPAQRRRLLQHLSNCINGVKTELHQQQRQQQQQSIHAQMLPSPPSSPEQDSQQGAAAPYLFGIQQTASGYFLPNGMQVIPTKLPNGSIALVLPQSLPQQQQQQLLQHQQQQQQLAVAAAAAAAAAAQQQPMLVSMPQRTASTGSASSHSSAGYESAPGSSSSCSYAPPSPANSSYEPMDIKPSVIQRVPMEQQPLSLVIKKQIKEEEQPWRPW
Max (151 residue form), sequence (P61244 other isoform, or with tags, fused parts or gaps): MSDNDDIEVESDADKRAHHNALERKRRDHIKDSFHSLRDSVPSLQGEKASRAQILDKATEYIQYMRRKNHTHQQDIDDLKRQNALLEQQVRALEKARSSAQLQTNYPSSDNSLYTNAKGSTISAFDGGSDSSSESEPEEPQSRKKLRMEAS

B1: glutathione S-transferase (GST)-Mxi1 1-220 (other)
chain: MPSPRLQHSKPPRRLSRAQKHSSGTSNTSTANRSTHNELEKNRRAHLRLCLERLKVLIPLGPDCTRHTTLGLLNKAKAHIKKLEEAERKSQHQLENLEREQRFLKWRLEQLQGPQEMERIRMDSIGSTISSDRSDSEREEIEVDVESTEFSHGEVDNISTTSISDIDDHSSLPSIGSDEGYSSASVKLSFTSYRTQHDITVQGKIFTGPIQYKQSLKLGS
As to B1, in data set [1], the binding result is listed as “no binding”.

B2: tagged Mxi1 (the invariant activation-tagged moiety of pJG4-5 fused to Mxi1 residues 10-220) (protein)
chain: PPKKKRKVAYPYDVPDYAKPPRRLSRAQKHSSGTSNTSTANRSTHNELEKNRRAHLRLCLERLKVLIPLGPDCTRHTTLGLLNKAKAHIKKLEEAERKSQHQLENLEREQRFLKWRLEQLQGPQEMERIRMDSIGSTISSDRSDSEREEIEVDVESTEFSHGEVDNISTTSISDIDDHSSLPSIGSDEGYSSASVKLSFTSYRTQHDITVQGKIFTGPIQYKQSLKLGS
Turning to B2, the β-galactosidase (galactose) in [2] is less than 2; in the data set with LexA-Hairy (Drosophila), less than 2; with LexA-Id (human), less than 2; with LexA-Max (human) it was 120; with LexA-cMyc-Cterm (human), 10; in [3], 8. In the data set with LexA-Mxi1 (human), this molecule gave a β-galactosidase (galactose) of 10.

B3: Myc-Max consensus site oligonucleotide (dsDNA)
DNA 1: GGAAGCAGACCACGTGGTCTGCTTCC
DNA 2: GGAAGCAGACCACGTGGTCTGCTTCC
With B3, the binding result with Max (151 residue form) is listed as “binds”.

The values are drawn from patent publication US6017692, “Methods of detecting a malignant cell in a biological sample comprising measuring Mxi gene expression alterations” (The General Hospital Corporation, dated 1994).
